Test [1] concerns the target phosphorylated adapter protein p52ShcA (UniProt P29353). In words: multiplate ELISA, comparison of Kd values.
Test [2] addresses T1, phosphorylated Villin (UniProt P09327).
T1 sequence (tyrosine phosphorylated by expression in E. coli TKX1; sites not stated, looked up): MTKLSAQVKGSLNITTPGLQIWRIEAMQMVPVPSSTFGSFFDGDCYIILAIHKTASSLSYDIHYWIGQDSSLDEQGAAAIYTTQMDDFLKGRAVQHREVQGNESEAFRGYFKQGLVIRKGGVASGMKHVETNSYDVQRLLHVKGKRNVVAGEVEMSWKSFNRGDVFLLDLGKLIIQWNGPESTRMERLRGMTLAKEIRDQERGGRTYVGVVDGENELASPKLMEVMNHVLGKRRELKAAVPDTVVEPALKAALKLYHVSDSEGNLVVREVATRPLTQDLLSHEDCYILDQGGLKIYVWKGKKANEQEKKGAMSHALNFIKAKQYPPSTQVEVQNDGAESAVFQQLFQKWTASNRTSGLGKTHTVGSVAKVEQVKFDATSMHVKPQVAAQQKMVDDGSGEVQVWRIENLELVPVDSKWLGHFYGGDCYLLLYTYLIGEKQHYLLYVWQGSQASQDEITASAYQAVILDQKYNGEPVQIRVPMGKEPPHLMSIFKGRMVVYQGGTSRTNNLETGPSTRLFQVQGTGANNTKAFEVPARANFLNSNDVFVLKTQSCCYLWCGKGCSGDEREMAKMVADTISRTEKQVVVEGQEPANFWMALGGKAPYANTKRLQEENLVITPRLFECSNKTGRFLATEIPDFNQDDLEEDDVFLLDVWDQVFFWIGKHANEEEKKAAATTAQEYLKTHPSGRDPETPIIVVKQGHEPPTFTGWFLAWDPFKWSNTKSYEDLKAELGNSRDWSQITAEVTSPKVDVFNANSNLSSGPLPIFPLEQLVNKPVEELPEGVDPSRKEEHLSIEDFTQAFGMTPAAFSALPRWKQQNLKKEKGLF
In words: multiplate ELISA, P-Villin coated, GST-P-Jak3 titrated, anti-GST detection, GST-alone control subtracted.

Test [3] addresses phosphorylated adapter protein p52ShcA (UniProt P29353). As to the kind of experiment: multiplate ELISA, P-p52ShcA coated, GST-P-Jak3 titrated, anti-GST detection.
The target in test [4] is T1, phosphorylated Villin. In words: multiplate ELISA, P-Villin coated, GST-Jak3-G257 titrated, anti-GST detection.

“phosphorylated GST-WT-Jak3 fusion protein (enzyme)”: the fold weaker than P-Jak3 binding with P-Villin in test [1] was determined as 10 fold. In addition, the values for the Kd (in the test with phosphorylated Villin [2]; in test [3]) were 0.023 µM and 0.22 µM, respectively.
The substance “GST-truncated Jak3 fusion protein lacking the JH1, JH2, JH3 and JH4 domains” yielded a Kd in the test with phosphorylated Villin [4] of 0.04 µM.

The record behind these values is patent US20160223545A1.
